The supplement of paper PMC9732359
± gives the uncertainty stated by the source.

Test: protein stability index of a GFP-peptide fusion (yeast GPS) (PSI 1-4); higher = more stable; sorted into four equal gates, so the index is relative within each strain
In short: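 The protein stability index of a peptide was calculated by multiplying its read frequency in each gate by that gate's number and adding the products. The peptides were tiled 17-residue stretches of yeast proteins, fused downstream of GFP on a Cherry-expressing plasmid and carried in yeast as a pooled library. Mid-log cultures in leucine-free medium were sorted into four equal gates by GFP/Cherry ratio, and each gate's plasmids were PCR-amplified and Illumina-sequenced.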

Sequence	protein stability index (doa10∆)	protein stability index (pdr5∆)	protein stability index (san1∆)	protein stability index (ubr1∆)
TITDLIEQGIPKHSYLS [SIR4]	3.05 ± 0.059	3.16 ± 0.06	3.21 ± 0.073	3.17 ± 0.043
NKYPELLGKDNEDDALI [AAR2]	3.33 ± 0.1	3.19 ± 0.089	3.33 ± 0.051	3.02 ± 0.11
AKRIRVSHHATTFTHCE [RPB2]	3.07 ± 0.07	3.15 ± 0.074	2.48 ± 0.09	2.88 ± 0.066
VWGSETVASSKVGYTLP [RPL4A]	3.03 ± 0.059	3.15 ± 0.049	3.14 ± 0.034	3.156 ± 0.031
LSRGDDEVTIRRTVGLK [SMC3]	3.17 ± 0.096	2.73 ± 0.083	2.77 ± 0.078	2.55 ± 0.063
SYVEPVLVASAKGLQTV [RPL31A]	2.2 ± 0.059	2.33 ± 0.08	2.23 ± 0.065	2.22 ± 0.082
LTVENKLQFETDRLSTT [SMC1]	3.24 ± 0.077	3.05 ± 0.05	2.84 ± 0.047	2.94 ± 0.044
KQFDSIFNSNKAKIIPG [SIR4]	2.32 ± 0.046	2.33 ± 0.047	2.69 ± 0.064	2.65 ± 0.041
CFCEDHCDKCSVVLTLQ [RPB3]	3.12 ± 0.14	3.15 ± 0.14	2.42 ± 0.19	2.51 ± 0.17
HRINMDKYHPGYFGKVG [RPL28]	3.4 ± 0.074	3.41 ± 0.059	3.24 ± 0.061	3.24 ± 0.068
HVLKKNPLKNKQVLLRL [RPL4A]	1.43 ± 0.15	1.79 ± 0.086	1.3 ± 0.13	2.38 ± 0.088
GSRKVAGILRGYDIFLN [SMX2]	2.5 ± 0.11	1.67 ± 0.08	1.83 ± 0.15	1.98 ± 0.099
GNNPSWVNNPKKRFTPH [YDL088C/ASM4]	3.42 ± 0.23			
QLGLQTVIRGNSIISLE [SMX2]	2.22 ± 0.093	2.57 ± 0.077	2.47 ± 0.07	2.25 ± 0.058
APPQRPRFNRDNKVSPA [RPS26B]	2.79 ± 0.1	2.45 ± 0.11	3.09 ± 0.14	
CLDQMTEQFCATLNYID [SRB7]	2.39 ± 0.043	2.87 ± 0.047	2.99 ± 0.049	2.65 ± 0.039
PSFTDEQWITIESQMRD [PRP8]	2.44 ± 0.067	2.66 ± 0.064	2.8 ± 0.069	2.6 ± 0.053
IISRLNADFQKPWFATV [FAS1]	2.27 ± 0.066	2.4 ± 0.063	2.1 ± 0.071	2.96 ± 0.069
HAKRKTVTSLDVVYALK [HHF1]	3.54 ± 0.18	3.57 ± 0.14	3.19 ± 0.084	3.12 ± 0.12
DSNMDSISSVVSEDLLD [RPN4]	2.3 ± 0.073	2.31 ± 0.056	2.76 ± 0.05	2.45 ± 0.032
TDENTPSADGADKKDDS [ITC1]	3.04 ± 0.11	3.11 ± 0.062	3.36 ± 0.064	2.98 ± 0.061
EKSGISKMSDESFAELM [RPC17]	3.26 ± 0.14		3.27 ± 0.11	3.42 ± 0.2
GIAIGLNKGKKVTSMTP [RPL36A]	3.08 ± 0.18	3.13 ± 0.12		3.15 ± 0.1
SEAKRTKFSNPAIPPVI [BRR2]	2.13 ± 0.06	2.25 ± 0.054	2.45 ± 0.067	2.44 ± 0.056
LDYQETYVEELFPIVKK [YJL039C/NUP192]	2.81 ± 0.071	3.07 ± 0.1	2.87 ± 0.1	2.75 ± 0.062
EVIGYIAAGTYGKVYKA [SSN3]	2.01 ± 0.05	2.25 ± 0.042	2.17 ± 0.069	1.9 ± 0.045
